For the assay, the target named is T1, HLA-A*02:01 (human).
T1 construct: MHC monomers first loaded with a UV-sensitive peptide (not identified) that is cleaved by UV light and exchanged for the test peptide; captured on streptavidin plates, detected with anti-β2m; also called peptide-receptive MHC molecules; MHC class I
The assay can be described thus: UV-ligand exchange + anti-b2m ELISA; peptide exchange yield grade (+ >=10%, ++ >=20%, +++ >=50, ++++ >=75%). From the text: Candidate peptides for T cell based therapies according to the present invention were further tested for their MHC binding capacity (affinity). The individual peptide-MHC complexes were produced by UV-ligand exchange, where a UV-sensitive peptide is cleaved upon UV-irradiation, and exchanged with the peptide of interest as analyzed. Only peptide candidates that can effectively bind and stabilize the peptide-receptive MHC molecules prevent dissociation of the MHC complexes. To determine the yield of the exchange reaction, an ELISA was performed based on the detection of the light chain (β2m) of stabilized MHC complexes. The assay was performed as generally described in Rodenko et al. (Rodenko et al., 2006).
96 well MAXISorp plates (NUNC) were coated over night with 2 ug/ml streptavidin in PBS at room temperature, washed 4× and blocked for 1h at 37° C. in 2% BSA containing blocking buffer. Refolded HLA-A*02:01/MLA-001 monomers served as standards, covering the range of 15-500 ng/ml. Peptide-MHC monomers of the UV-exchange reaction were diluted 100 fold in blocking buffer. Samples were incubated for 1 h at 37° C., washed four times, incubated with 2 ug/ml HRP conjugated anti-β2m for 1h at 37° C., washed again and detected with TMB solution that is stopped with […]. Absorption was measured at 450 nm. […]
Background: In an ELISA, binding on a coated surface is turned into a signal by an enzyme label.

For SLTALRLLL (source gene KBTBD11) [SLTALRLLL (SEQ ID NO: 70)], the peptide exchange yield lay in the range of 20 to 50%.

Values taken from patent US20160287687A1 (IMMATICS BIOTECHNOLOGIES, published 2016).
